Source: US20190023809A1, “ANTI-NICOTINAMIDE PHOSPHORIBOSYLTRANSFERASE ANTIBODY GENES AND METHODS OF USE THEREOF” (The Children's Mercy Hospital, priority 2015, published 2019)

B1: Ab2: anti-NAMPT single-chain variable fragment antibody clone, 249 amino acids, SEQ ID NO 3/4, in pCAGGS expression vector (protein, listed as Homo sapiens)
scFv: MEVQLLESGGGLVQPGGSLRLSCAASGFAFSSYAMSWVRQAPGKGLEWVSNISGRGAKTTYADSVKGRFTISRDNSKNTLYLQMNSLRAEDTAVYYCAKTYLVFDYWGQGTLVTVSSGGGGSGGGGSGGGGSTDIQMTQSPSSLSASVGDRVTITCRASQSISSYLNWYQQKPGKAPKLLIYRASSLQSGVPSRFSGSGSGTDFTLTISSLQPEDFATYYCQQISATPTTFGQGTKVEIKRAAHHHHHH
modifications: (32)..(36) CDR1; (41)..(60) CDR2 scFv2; (90)..(96) CDR3 scFv3; (108)..(122) 15-mer linker sequence; (147)..(157) CDR4; (173)..(180) CDR5 scFv2; (214)..(220) CDR6 scFv2; (234)..(239) Histidine Tag
B2: Ab1: anti-NAMPT single-chain variable fragment antibody clone, 247 amino acids, SEQ ID NO 1/2, in pCAGGS expression vector (protein, listed as Homo sapiens)
scFv: MEVQLLESGGGLVQPGGSLRLSCAASGFTFSSYAMSWVRQAPGKGLEWVSVINVPGNRTSYADSVKGRFTISRDNSKNTLYLQMNSLRAEDTAVYYCAKKTRRFDYWGQGTLVTVSSGGGGSGGGGSGGGGSTDIQMTQSPSSLSASVGDRVTITCRASQSISSYLNWYQQKPGKAPKLLIYGASVLQSGVPSRFSGSGSGTDFTLTISSLQPEDFATYYCQQRVRSPATFGQGTKVEIKRHHHHHH
modifications: (32)..(36) CDR1; (51)..(70) CDR2 scFv1; (99)..(105) CDR3 scFv1; (157)..(167) CDR4; (183)..(189) CDR5 scFv1; (224)..(230) CDR6 scFv1; (242)..(247) Histidine Tag

Columns and labels:
SP-B = SP-B expression in H441 cells pretreated with FK866, without or with TNF-α (western blot); type: cell-based, human
Experimental: FIG. 21 illustrates NAMPT inhibited SP-B expression via both its nonenzymatic and enzymatic activity. (A) H441 cells were transfected with either pCAGGS, pCAGGS-hNAMPT or pCAGGS-H247E. Cell lysate of NAMPT (10 μg), SP-B (30 μg) and GAPDH (10 μg) proteins were detected by western blot. Protein bands were quantified by densitometry using image J, and NAMPT levels (B) and SP-B levels (C) were normalized to GAPDH levels. Values are means±SD of 3 independent experiments. *p<0.05 vs. pCAGGS cells; #p<0.05 vs pCAGGS-hNAMPT cells. (D) H441 cells were pretreated with different doses of FK866 for 6 h before treatment without or with TNF-α (25 ng/ml) for 24 hours. Cell lysate of NAMPT (10 μg), SP-B (30 μg) and GAPDH (10 μg) proteins were detected by western blot. Protein bands were quantified by densitometry using image J, and NAMPT levels (E) and SP-B levels (F) were normalized to GAPDH levels. Values are means±SD of 3 independent experiments. *p<0.05 vs cells without FK866 or rhTNF-α treatment. #p<0.05 vs cells pretreated with FK866 but without rhTNF-α treatment;
This example determined that NAMPT inhibits SP-B expression mainly via its nonenzymatic activity and partly via its enzymatic activity. […]

CIA = CIA mice; cited from earlier work
[1] = cited from earlier work
3T3-L1 cells = assay: MTS / CellTiter 96 AQueous One cell proliferation assay in transfected 3T3-L1 cells; type: cell-based, mouse; details: for decreased proliferation as compared to the pCAGGS control population: fibroblasts, FIG. 1C; for proliferation of mouse 3T3: transfected cells, preliminary result
Experimental: FIG. 1C is a graphic representation of the results of assay of cell proliferation of 3T3-L1 cells transfected with scFV1 and scFv2 or pCAGGS control. After 72 h, cell proliferation was assayed by CellTiter 96® AQueous One Solution Cell Proliferation Assay (Promega, cat #G3582). Values are means±SD, N=12, * p≤0.001;
(§1) In one embodiment of the present disclosure, as best shown in FIG. 1A, the cDNA for each single-chain variable fragment (scFv) antibody was cloned, including a histidine tag on the 3′ end, into the pCAGGS expression vector. The VH and VL fragments for each scFv are separated by a (G4S)3 linker and encode proteins of 247 and 249 amino acids, respectively for NAMPT-scFv1 (antibody 1 or Ab1) and scFv2 (antibody 2 or Ab2) (FIG. 1B). To test the anti-NAMPT ability of each construct, MTS assays were performed in transfected 3T3-L1 (ATCC CL-173™) and RAW 264.7 (ATCC® TIB-71™) cells.
We expressed and purified recombinant mouse NAMPT protein and obtained two human against mouse NAMPT antibody gene clones, termed NAMPT-scFv1 (Ab1) and -scFv2 (Ab2), by screening a HuScL-2™ Phage Display Naïve Human scFv Library (www.creative-biolabs.com/). We cloned the cDNAs for each scFv, including a histidine-tag on the 3′ end, into the pCAGGS expression vector. The VH and VL fragments for each scFv are separated by a (G4S)3 linker and encode proteins of 247 and 249 amino acids, respectively for NAMPT-scFv1 and -scFv2. To test the anti-NAMPT ability of each construct, we performed MTS assays in transfected 3T3-L1 (ATCC® CL-173™) and RAW 264.7 (ATCC® TIB-71™) cells. […] To increase the specificity of these constructs we generate a hetero-dimer and a hetero-tetramer using established procedures. The hetero-dimer [scFv1-scFv2], also called a di-body, is separated by a GGSSRSSSSGGGGSGGGG linker. The hetero-tetramer, also called a tetra-body, consists of two dimers [scFv1-scFv2]2 joined by the HIV1 P21 capsid protein linker, GATPQDLNTML. The P21 linker is an epitope for the murine monoclonal CB4-1 antibody. […] Thus, we utilize the CB4-1 antibody and nickel-columns (His-Tag) to manipulate and purify our recombinant scFv antibodies. We enhance the specificity and tertiary structures of the di-body and tetra-body by modifying the type and length of the linker sequences. Their antisense clone of NAMPT-scFv1 and -scFv2 is used as controls. Since similar effects in in vitro assay were observed, only NAMPT-scFv1 and its antisense clone are used to prepare the constructs under the control of either the human MRP8 promoter or mouse MPO promoter for tissue specific expression in neutrophils or neutrophils and monocytes, respectively.

macrophage cell lines = assay: MTS proliferation assay in transfected macrophage cell lines (RAW 264.7); type: cell-based, mouse; details: data not shown
Excerpt: as §1
We expressed and purified recombinant mouse NAMPT protein and obtained two human against mouse NAMPT antibody gene clones, termed NAMPT-scFv1 (Ab1) and -scFv2 (Ab2), by screening a HuScL-2™ Phage Display Naïve Human scFv Library (www.creative-biolabs.com/). We cloned the cDNAs for each scFv, including a histidine-tag on the 3′ end, into the pCAGGS expression vector. The VH and VL fragments for each scFv are separated by a (G4S)3 linker and encode proteins of 247 and 249 amino acids, respectively for NAMPT-scFv1 and -scFv2. To test the anti-NAMPT ability of each construct, we performed MTS assays in transfected 3T3-L1 (ATCC® CL-173™) and RAW 264.7 (ATCC® TIB-71™) cells. […] To increase the specificity of these constructs we generate a hetero-dimer and a hetero-tetramer using established procedures. […]

human a549 cell = assay: Proliferation of human a549 cell (data not shown); type: cell-based
[2] = Cell culture experiments: cell death; type: cell-based
Excerpt: as §1

cell NAD synthesis = assay: NAD synthesis by transfected 3T3-L1 cells (Amplite Fluorimetric NAD/NADH Ratio Assay Kit); type: cell-based, mouse
Experimental: FIG. 1D is a graphic representation of the results of assay of NAD synthesis by 3T3-L1 cells transfected with scFv1 or pCAGGS control. After 72 h NAD synthesis was measured by Amplite™ Fluorimetric NAD/NADH Ratio Assay Kit (AAT Bioquest®, Inc. prod. number 15263). Values are means±SD, N=4, p≤0.005. Ab1, antibody 1; Ab2, antibody 2;
as §1

| Molecule | rescue of TNF-α induced inhibition of SP-B (SP-B; FK866 6 h then TNF-α 25 ng/ml 24 hours) | SP-B expression (SP-B; FK866 pretreatment 6 h) | severity and progression of arthritis (CIA) | side effect in humans [1] | cell proliferation, FIG. 1C values (Avg±SD) (3T3-L1 cells; 3T3-L1 cells transfected, after 72 h, pCAGGS control, N=12) [%+4.6] | decreased proliferation as compared to the pCAGGS control population (3T3-L1 cells) | proliferation of mouse 3T3 (3T3-L1 cells) | proliferation of macrophage cell lines (macrophage cell lines) | proliferation of human a549 cell (human a549 cell) | cell death [2] | NAD synthesis, FIG. 1D values (Avg±SD) (cell NAD synthesis; 3T3-L1 cells transfected, after 72 h, pCAGGS control, N=4) [%+10.4] | cell NAD synthesis (cell NAD synthesis; transfected cells) |
| --- | --- | --- | --- | --- | --- | --- | --- | --- | --- | --- | --- | --- |
| O=C(/C=C/c1cccnc1)NCCCCC1CCN(C(=O)c2ccccc2)CC1 [FK866] | did not significantly rescue | increased | effectively reduce | thrombocytopenia | – | – | – | – | – | – | – | – |
| B1 | – | – | – | – | 49.8 | about 50% | inhibit proliferation | inhibit proliferation | inhibited proliferation | induce cell death | – | – |
| B2 | – | – | – | – | – | about 50% | inhibit proliferation | inhibit proliferation | inhibited proliferation | induce cell death | 68.3 | inhibited cell NAD synthesis |
